Target: Bacteriophage T4 capsid, major capsid protein gp23* (bacteriophage T4)
Assay: co-sedimentation

Substance | copies per capsid (copies per capsid)
Soc-SpyCatcher displayed on the T4 phage capsid (T4-SpyCatcher phage) (designed binder) | 205
M2e-Hoc fusion (influenza M2e peptide on the tip of the T4 Hoc fiber) | 90

— PMC12245071
